In test [1] the test system is MEDI-PANC-08^LUC PDX model. Briefly: Orthotopic luciferase expressing pancreatic PDX model efficacy. The format is in vivo, mice. As to conditions: orthotopic MEDI-PANC-08^LUC; RAA2/B09 ADC 2 and 3 mg/kg Q1W×4; Gemcitabine 75 mg/kg; isotype control 3 mg/kg Q1W×4.
Experimental: The luciferase expressing PDX model (MEDI-PANC-08^LUC) was grown subcutaneously in NSG seed mice and at a volume of 800-1200 mm^3 the tumors were harvested and cut into fragments of approximately 2 mm^3. The tumor fragments were subsequently sutured to the pancreas of NSG mice (Day Zero). Luciferase signal was determined weekly using the IVIS Spectrum In vivo Imaging system. Briefly, 10 minutes prior to imaging, 200 ul of luciferin dissolved in DPBS (15 mg/ml) was injected intra-peritoneally (i.p.). The mice were anesthetized under 3% isoflurane, laid on their right side and luminescence measured. Fourteen days after tumor implant, when luminescent signal was clearly detectable, the mice were randomized into their respective groups based on the luminescence. […] Luminescence was measured weekly. Study endpoints included body weight loss, deterioration of body condition and lethargy. Data were analyzed using the Living Image software (Perkin Elmer) and plotted as Average Radiance [p/s/cm2/sr] against time.
Test [2] deals with human cMET receptor with the HGF ligand (Homo sapiens, UniProt P08581). Briefly: HGF:cMET HTRF ligand receptor inhibitory binding assay. As to conditions: purified IgG2 antibodies. The source says: cMET-specific scFv antibodies were isolated from a large naïve human scFv phage display library in a series of repeated panning selection cycles on recombinant mammalian expressed biotinylated monomeric human cMET (MedImmune) essentially as described (Vaughan, 1996). ScFvs from the round 2 of the selection output were expressed in the bacterial periplasm and screened for their ability to inhibit the binding of the human cMET receptor with the HGF ligand in a HGF:cMET HTRF® (Homogeneous Time-Resolved Fluorescence) ligand receptor inhibitory binding assay. […] Unique genes were then converted to human immunoglobulin G2 (IgG2) antibodies and produced in mammalian cells essentially as described (Persic; 1997). The purified antibodies were then ranked based on their inhibitory effect in the HGF:cMET HTRF® binding assay.
Sequence of human cMET receptor with the HGF ligand (P08581 25-932 limits assumed): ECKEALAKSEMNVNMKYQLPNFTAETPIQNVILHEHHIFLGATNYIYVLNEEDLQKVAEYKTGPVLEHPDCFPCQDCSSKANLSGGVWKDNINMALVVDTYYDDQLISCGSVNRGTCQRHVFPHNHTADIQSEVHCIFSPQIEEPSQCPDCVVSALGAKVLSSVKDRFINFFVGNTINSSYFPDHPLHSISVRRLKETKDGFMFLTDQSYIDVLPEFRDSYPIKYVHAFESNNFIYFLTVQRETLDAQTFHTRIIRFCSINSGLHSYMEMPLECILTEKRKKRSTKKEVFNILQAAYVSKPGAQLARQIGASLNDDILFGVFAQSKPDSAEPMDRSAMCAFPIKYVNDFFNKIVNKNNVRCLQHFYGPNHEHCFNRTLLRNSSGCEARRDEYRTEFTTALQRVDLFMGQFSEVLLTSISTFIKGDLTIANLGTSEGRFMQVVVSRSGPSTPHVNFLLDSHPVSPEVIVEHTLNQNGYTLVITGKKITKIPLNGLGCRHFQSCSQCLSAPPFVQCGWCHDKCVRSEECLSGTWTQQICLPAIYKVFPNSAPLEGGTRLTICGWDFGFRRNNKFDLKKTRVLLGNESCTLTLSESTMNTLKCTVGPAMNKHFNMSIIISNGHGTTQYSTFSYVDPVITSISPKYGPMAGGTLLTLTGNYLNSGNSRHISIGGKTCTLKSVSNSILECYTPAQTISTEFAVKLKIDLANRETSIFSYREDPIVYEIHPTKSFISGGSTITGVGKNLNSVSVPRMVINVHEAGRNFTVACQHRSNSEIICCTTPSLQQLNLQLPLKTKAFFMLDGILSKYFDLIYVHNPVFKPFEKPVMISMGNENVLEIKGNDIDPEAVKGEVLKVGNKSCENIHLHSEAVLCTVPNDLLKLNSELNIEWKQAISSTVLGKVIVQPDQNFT
To minimize potential immunogenicity, non-Vernier framework residues (Foote and Winter 1992) in the variable framework regions of 0021U3-B09 were targeted specifically and altered to match the closest human germline sequence. In the VH region, seven amino acid residues were mutated to match the reference human germline sequence IGHV1-8*01. In the VL region, three residues were mutated to match the reference human germline sequence IGKV1-5*03. All residues in VH and VL regions were successfully changed to the germline residues without loss of activity. […]

The target of test [3] is T1, Mouse EGFR (Mus musculus, UniProt Q01279).
T1 construct: purchased SinoBiological 51091-M08H
Briefly: SPR (BIAcore T200) antibody capture kinetics. In kind it is binding. The method, then: (§1) Mouse anti-human IgG was immobilized on a CM4 sensor chip with a final surface density of ˜2000 resonance units (RUs). A reference flow cell surface was also prepared on this sensor chip using identical immobilization protocol. Test and control article antibodies were prepared at 5-20 nM in instrument buffer (HBS-EP buffer; 0.01M HEPES, pH 7.4, 0.15M NaCl, 3 mM EDTA, and 0.005% P-20), along with 3-fold serial dilutions of purified EGFR (0.27-200 nM human, 0.4-900 nM cyno, and 4-1000 nM murine) or cMET proteins (0.27 to 66 nM human and 0.27-22 nM cyno) in instrument buffer. A sequential approach was utilized for kinetic measurements. Antibodies were first injected over the capture surface, at a flow rate of 10 μL/minute. Once the binding of the captured antibody stabilized, a single concentration of the analyte was injected over both capture and reference surfaces, at a flow rate of 75 μL/minute. The resulting binding response curves yielded the association phase data. Following the injection of analyte, the flow was then switched back to instrument buffer for 15 minutes to permit the collection of dissociation phase data, followed by a 1-minute pulse of 10 mM glycine, pH 1.5, to regenerate the antibody-captured surface on the chip. Binding responses against test and control article antibodies were recorded from duplicate injections of each concentration of analyte. In addition, several buffer injections were interspersed throughout the injection series. Select buffer injections were used along with the reference cell responses to correct the raw data sets for injection artifacts and/or nonspecific binding interactions, commonly referred to as “double referencing”. Corrected binding data were globally fit to a 1:1 binding model (Biacore T200 Evaluation software 2.0, GE Healthcare, Pittsburgh, PA).

In test [4] the target is Cynomolgus monkey EGFR. Briefly: SPR (BIAcore T200) antibody capture kinetics. In kind it is binding. The method, then:
as §1

Test [5] has as its target T2, Human EGFR (Homo sapiens, UniProt P00533). Briefly: SPR (BIAcore T200) antibody capture kinetics. The format is binding. The method, then: as §1
The target of test [6] is T3, Human cMET (Homo sapiens, UniProt P08581). As to the kind of experiment: SPR (BIAcore T200) antibody capture kinetics. The format is binding. The method, then:
as §1

Test [7] deals with T4, Mouse cMET (Mus musculus, UniProt P16056).
T4 construct: purchased SinoBiological 50622-M08H
T4 sequence (P16056 25-929 limits assumed): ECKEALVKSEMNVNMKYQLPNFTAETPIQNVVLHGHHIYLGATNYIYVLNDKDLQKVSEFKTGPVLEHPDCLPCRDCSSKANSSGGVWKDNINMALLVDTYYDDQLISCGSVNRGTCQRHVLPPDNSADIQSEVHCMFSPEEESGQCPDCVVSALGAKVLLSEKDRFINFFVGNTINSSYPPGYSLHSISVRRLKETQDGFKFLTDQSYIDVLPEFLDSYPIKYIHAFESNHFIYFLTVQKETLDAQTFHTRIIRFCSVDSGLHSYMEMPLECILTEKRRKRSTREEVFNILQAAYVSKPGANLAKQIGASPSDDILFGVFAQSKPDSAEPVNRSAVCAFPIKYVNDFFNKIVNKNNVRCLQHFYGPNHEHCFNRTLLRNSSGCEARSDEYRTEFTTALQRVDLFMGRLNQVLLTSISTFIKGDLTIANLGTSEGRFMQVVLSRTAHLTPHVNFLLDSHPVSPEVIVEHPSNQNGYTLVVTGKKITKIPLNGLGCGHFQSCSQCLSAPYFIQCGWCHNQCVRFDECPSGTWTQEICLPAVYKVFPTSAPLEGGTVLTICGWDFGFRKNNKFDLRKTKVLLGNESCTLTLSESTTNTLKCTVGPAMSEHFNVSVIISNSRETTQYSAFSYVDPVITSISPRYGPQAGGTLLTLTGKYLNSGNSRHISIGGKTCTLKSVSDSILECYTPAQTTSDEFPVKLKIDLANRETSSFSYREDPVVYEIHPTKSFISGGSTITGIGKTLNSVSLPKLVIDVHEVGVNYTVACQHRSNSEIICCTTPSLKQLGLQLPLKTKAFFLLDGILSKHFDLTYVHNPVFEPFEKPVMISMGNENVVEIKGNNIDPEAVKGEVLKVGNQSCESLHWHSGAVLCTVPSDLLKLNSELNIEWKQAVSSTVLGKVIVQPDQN
Briefly: SPR (BIAcore T200) antibody capture kinetics. In kind it is binding. The method, then: as §1

Test [8] relates to Cynomolgus monkey cMET. Briefly: SPR (BIAcore T200) antibody capture kinetics. The format is binding. The method, then: as §1
Sequence of Cynomolgus monkey cMET (as listed by the source): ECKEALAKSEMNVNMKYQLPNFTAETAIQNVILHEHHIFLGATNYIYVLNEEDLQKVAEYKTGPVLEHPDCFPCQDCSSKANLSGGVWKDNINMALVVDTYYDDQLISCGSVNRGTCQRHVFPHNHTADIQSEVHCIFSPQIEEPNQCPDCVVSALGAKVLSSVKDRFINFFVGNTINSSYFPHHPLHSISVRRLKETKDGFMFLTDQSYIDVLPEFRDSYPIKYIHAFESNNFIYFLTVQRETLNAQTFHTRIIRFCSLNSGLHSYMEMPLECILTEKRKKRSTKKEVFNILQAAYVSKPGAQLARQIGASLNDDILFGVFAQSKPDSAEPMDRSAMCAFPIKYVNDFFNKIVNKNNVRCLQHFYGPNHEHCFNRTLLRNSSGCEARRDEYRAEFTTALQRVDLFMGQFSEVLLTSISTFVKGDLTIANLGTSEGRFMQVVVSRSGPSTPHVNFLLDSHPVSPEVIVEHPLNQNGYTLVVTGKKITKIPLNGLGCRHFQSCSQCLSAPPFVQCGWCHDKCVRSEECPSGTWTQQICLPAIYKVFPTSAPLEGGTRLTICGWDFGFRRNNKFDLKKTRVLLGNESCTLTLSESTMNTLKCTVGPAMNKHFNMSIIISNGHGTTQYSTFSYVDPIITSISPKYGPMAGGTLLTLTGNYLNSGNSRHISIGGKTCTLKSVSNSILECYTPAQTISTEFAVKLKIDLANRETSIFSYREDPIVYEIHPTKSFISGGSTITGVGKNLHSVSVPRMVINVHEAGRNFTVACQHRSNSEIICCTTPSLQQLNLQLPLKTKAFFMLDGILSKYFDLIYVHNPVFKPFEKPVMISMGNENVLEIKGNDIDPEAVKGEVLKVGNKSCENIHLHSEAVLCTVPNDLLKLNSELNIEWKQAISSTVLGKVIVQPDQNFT
The target of test [9] is Ron (CD136) (Homo sapiens, UniProt Q04912). As to the kind of experiment: ELISA family specificity. In kind it is binding. The method, then:
(§2) Specificity for EGFR and cMET species paralogs and closely related family members was determined by ELISA. Briefly, antigen solutions were prepared in PBS at 1 μg/mL and 50 microliters was coated onto half area ELISA assay plates. Plates were washed and blocked with 1% BSA in PBS containing 0.005% Tween-20 (PBS-T) for one hour at room temperature. The wells were washed 4 times in PBS-T. As set out in FIG. 3, the primary antibodies used where: R374 (a non-binding IgG1 isotype control antibody), B09 (anti-cMET antibody), QD6 (anti-EGFR antibody), RAA22 (anti-EGFR antibody), QD6/B09 (bispecific EGFR/c-MET DuetMAb), RAA22/B09 (bispecific EGFR/c-MET DuetMAb), PaniX (anti-EGFR antibody), MetMab (anti-cMET antibody) and Mab11311 (anti-HER4 antibody). Wells were incubated with 50 microliters of the indicated primary antibodies diluted in PBS-T in a 1:3 dilution series, starting at 10 μg/mL and ending at 0.002 μg/mL, except for the HER4 binding mAb control, MAB1131, for which the series started at 1 μg/mL. The wells were washed 4 times in PBS-T, then 50 μl of goat anti-human Fab HRP-labeled secondary antibody, diluted 1:5000 in PBS-T, was added to each well and incubated for one hour at room temperature. […] 50 microliters of TMB stop solution was added to all wells and the absorbance was read at 450 nm on a SpectraMax M5 microplate reader. Data were analyzed in the SoftMax Pro 5 software and plotted using GraphPad Prism 7 graphing software.

The subject of test [10] is Semaphorin 3a. Briefly: ELISA family specificity. In kind it is binding. The method, then:
as §2

The target in test [11] is T3, Human cMET. Briefly: ELISA species cross reactivity. The format is binding. The method, then:
as §2
(§3) To determine the species cross reactivity, ELISA assays were carried out as described above. […] There was no detectable binding of any of the antibodies to mouse cMET.

In test [12] the test system is Cynomolgus monkey cMET. Briefly: ELISA species cross reactivity. The format is binding. The method, then:
as §2, §3

The target of test [13] is HER2 (Homo sapiens, UniProt P04626). Briefly: ELISA family specificity. In kind it is binding. The method, then: as §2
In test [14] the target is HER4 (Homo sapiens, UniProt Q15303). Briefly: ELISA family specificity. In kind it is binding. The method, then: as §2
Sequence of HER4 (Q15303 26-1308, species assumed): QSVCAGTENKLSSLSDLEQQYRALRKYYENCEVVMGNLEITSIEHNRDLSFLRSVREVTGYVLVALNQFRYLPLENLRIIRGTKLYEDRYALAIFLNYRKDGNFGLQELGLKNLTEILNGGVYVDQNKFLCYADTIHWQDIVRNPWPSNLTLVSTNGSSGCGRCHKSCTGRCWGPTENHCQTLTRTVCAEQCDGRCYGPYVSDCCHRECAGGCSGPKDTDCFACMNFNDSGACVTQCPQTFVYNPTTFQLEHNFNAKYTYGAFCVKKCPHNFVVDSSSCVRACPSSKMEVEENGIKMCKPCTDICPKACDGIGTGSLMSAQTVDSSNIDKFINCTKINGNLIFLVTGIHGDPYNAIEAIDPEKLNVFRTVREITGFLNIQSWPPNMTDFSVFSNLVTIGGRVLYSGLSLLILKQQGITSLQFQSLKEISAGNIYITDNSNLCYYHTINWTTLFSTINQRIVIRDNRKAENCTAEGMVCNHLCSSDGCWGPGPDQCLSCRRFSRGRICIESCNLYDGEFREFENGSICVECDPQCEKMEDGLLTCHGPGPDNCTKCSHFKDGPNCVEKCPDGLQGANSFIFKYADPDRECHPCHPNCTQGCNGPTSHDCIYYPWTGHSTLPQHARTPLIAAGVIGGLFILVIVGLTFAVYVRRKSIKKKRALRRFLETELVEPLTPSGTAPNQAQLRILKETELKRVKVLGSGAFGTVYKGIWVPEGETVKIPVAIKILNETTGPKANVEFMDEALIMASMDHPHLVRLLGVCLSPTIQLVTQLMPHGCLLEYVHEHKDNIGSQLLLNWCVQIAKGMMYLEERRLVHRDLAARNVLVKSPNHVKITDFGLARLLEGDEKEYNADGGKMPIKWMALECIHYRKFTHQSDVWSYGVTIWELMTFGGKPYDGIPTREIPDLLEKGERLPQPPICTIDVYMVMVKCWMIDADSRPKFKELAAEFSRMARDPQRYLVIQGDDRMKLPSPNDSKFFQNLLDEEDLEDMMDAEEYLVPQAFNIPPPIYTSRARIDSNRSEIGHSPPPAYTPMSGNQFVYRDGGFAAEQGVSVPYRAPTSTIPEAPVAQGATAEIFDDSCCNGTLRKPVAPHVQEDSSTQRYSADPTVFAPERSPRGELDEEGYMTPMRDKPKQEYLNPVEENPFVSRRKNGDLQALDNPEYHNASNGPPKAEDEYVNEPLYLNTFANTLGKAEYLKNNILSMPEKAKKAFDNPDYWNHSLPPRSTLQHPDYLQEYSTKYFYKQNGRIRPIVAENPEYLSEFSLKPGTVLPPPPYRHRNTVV
The target in test [15] is HER3 (Homo sapiens, UniProt P21860). As to the kind of experiment: ELISA family specificity. In kind it is binding. The method, then: as §2
Test [16] concerns the target T1, Mouse EGFR. Briefly: ELISA species cross reactivity. In kind it is binding. The method, then: as §2, §3
Test [17] relates to Cynomolgus monkey EGFR. As to the kind of experiment: ELISA species cross reactivity. In kind it is binding. The method, then:
as §2, §3

Test [18] has as its target T2, Human EGFR. As to the kind of experiment: ELISA species cross reactivity. In kind it is binding. The note with it: antibody 10 to 0.002 μg/mL. The method, then: as §2, §3

T3 sequence (P08581 25-932): as the sequence (P08581 25-932 limits assumed) above

Take `Nc1ccn([C@@H]2O[C@H](CO)[C@@H](O)C2(F)F)c(=O)n1` [Gemcitabine]: in [1], the luminescent signal result was “initial reduction in the luminescent signal reaching a nadir around day 21, after which the signal increased over time”.

B1: B09-57 IgG: affinity optimized, germlined anti-cMET antibody derived from 0021U3-B09, VH SEQ ID NO: 38, VL SEQ ID NO: 40 (antibody, V domains shown)
VH: QVQLVQSGAEVKKPGASVKVSCKASGYTFTDYYIHWVRQATGQGLEWMGWMNPNSGNTGYAQKFQGRVTMTRDTSISTAYMELSSLRSEDTAVYYCARGQGYTHSWGQGTMVTVSS
VL: DIQMTQSPSTLSASVGDRVTITCRASEGIYHWLAWYQQKPGKAPKLLIYKASSLASGVPSRFSGSGSGTEFTLTISSLQPDDFATYYCQQYSNYPPTFGGGTKLEIK
For B1, in [2], the “rank by inhibitory effect in the HGF:cMET HTRF binding assay” value is given as “most potent antibody”. Also, the KD result in test [3] (koff/kon), in [4] (koff/kon), in test [5] (KD calculated as koff/kon) and in [7] was “No binding detected at 200 nM” throughout. The Koff in test [6] (25° C.) is 0.000882 s⁻¹; in test [8] (25° C.) it was 0.00194 s⁻¹. Also, the Kon in test [6] (25° C.) is 563000 M⁻¹ s⁻¹; in test [8] (25° C.), 1.04e+06 M⁻¹ s⁻¹. The ELISA binding entry is “no binding” in test [9], “no binding” in [10], “comparable binding” in test [11] and “comparable binding” in test [12].

B2: RAA22 IgG: low affinity anti-EGFR IgG1 antibody clone, VH SEQ ID NO: 16, VL SEQ ID NO: 20 (antibody, V domains shown)
VH: QVQLVQSGAEVKKPGSSVKVSCKASGGTFSDNDFSWVRQAPGQGLEWMGAIVAVFRTETYAQKFQDRVKITADISTRTTYMELSSLRSEDTAVYYCARRLMSAISGPGAPLLMWGQGTLVTVSS
VL: QSALTQPRSVSGSPGQSVTISCTGTSSDVGGYNYVSWYQQHPGKAPKLMIYDVSKRPSGVPDRFSGSKSGNTASLTISGLQAEDEADYYCSSYTSSDTLEIFGGGTKLTVL
As for B2, the Koff in test [3] (25° C.) is 0.019 s⁻¹; in test [4] (25° C.), 0.00601 s⁻¹; in test [5] (25° C.), 0.00206 s⁻¹. Further, the Kon in [3] (25° C.) stood at 40300 M⁻¹ s⁻¹; in [4] (25° C.), 35400 M⁻¹ s⁻¹; in test [5] (25° C., 1:1 binding model), 44100 M⁻¹ s⁻¹. The KD entry in test [6] (koff/kon), in test [7] and in [8] (koff/kon) was “No binding detected at 200 nM” throughout. Further, the ELISA binding result is listed as “no binding” in test [13]; “no binding” in test [14]; “no binding” in test [15]; “weak, but detectable” in test [16]; “bound more weakly” in [17]; “bound more weakly” in test [18].
